Test results from US20230416825A1.
Read-outs that look alike come from different tables or passages of the source. One block for each molecule: values may come before it.

How the values were obtained:
[1] = target: Recombinant human KLK5 (Genentech) (human) (UniProt Q9Y337); experiment: cell-based or functional assay
[2] = target: Recombinant human KLK5 (Genentech) (human) (UniProt Q9Y337); experiment: cell-based or functional assay; remark: listed apart in the source

UniProt Q9Y337, sequence (Q9Y337 67-293 limits assumed, form in doubt): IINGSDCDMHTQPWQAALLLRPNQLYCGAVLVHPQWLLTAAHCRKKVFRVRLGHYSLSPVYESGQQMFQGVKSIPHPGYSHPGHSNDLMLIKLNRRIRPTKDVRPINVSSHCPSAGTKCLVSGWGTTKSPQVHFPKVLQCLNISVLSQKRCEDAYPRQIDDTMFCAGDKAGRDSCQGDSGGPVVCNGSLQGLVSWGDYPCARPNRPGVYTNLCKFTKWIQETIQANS

IC50, LC/MS assay of KLK5 (0.5 nM) cleavage of pro-KLK1 [1]: 0.34 nM | IC50, LC/MS assay of KLK5 (5 nM) cleavage of pro-KLK7 (15 nM) [1]: 1.86 nM | direct KLK5 activity assay at 20, 10, 5 and 2.5 nM KLK5: reduction in cleavage of the fluorescent peptide substrate [1]: 30% | maximum KLK5 inhibition, LC/MS assay of KLK5 (0.5 nM) cleavage of pro-KLK1 [1]: 40%
Molecule: mAb1108 (Monoclonal Mouse IgG2b Clone #193318, R & D Systems, Minneapolis, MN) (antibody)

IC50, LC/MS assay of KLK5 (0.5 nM) cleavage of pro-KLK1 [2]: 0.58 nM | IC50, LC/MS assay of KLK5 (5 nM) cleavage of pro-KLK7 (15 nM) [2]: 1.13 nM
B1: SPINK9 (I20-C86.C22S.H48R.M49E)-Fc (Fc fusion, not shown: a dimerising Fc or GST)
chain: IESAKQTKQMVDCSHYKKLPPGQQRFCHREYDPICGSDGKTYKNDCFFCSKVKKTDGTLKFVHFGKC
